Measurements taken from US12441811B2, “Compositions and methods for treating serpin B13 disorders” (REGENTS OF THE UNIVERSITY OF MINNESOTA, priority 2019, dated 2025).
Entries after “also recorded” stand apart in the source; their conditions may differ.

Experiments:
Notch1 receptor = assay: Examination of Notch1 receptor in embryonic pancreas (Western blot, flow cytometry, qPCR); type: cell-based, mouse; details: for levels of active Notch intracellular domain (aNICD): embryonic pancreas, antibody vs control Ab
Protocol: Staining for flow cytometry. BD LSRFortessa X-20, LSR-II and FACSCanto-II were used for FACS analysis. Positive populations of cells were gated and counted using FlowJo ver.10 software. For the islet cells isolated from adult mice, intracellular staining to detect glucagon and insulin was used to count single-positive as well as double-negative cells. In the cells isolated from embryonic pancreas explants, intracellular staining was performed to detect Ngn3, CK19, and active Notch, and extracellular staining was used to detect the extracellular Notch domain, EpCAM, CD31 and CD45.
Western blotting. Pancreatic tissues were processed from E16.5 embryos as single samples and directly used for lysis. Embryonic pancreas explants from E12.5 embryos were cultured in vitro with anti-serpinB13 mAb (or control Ab) for 24 or 48 hours, then, three explant cultures were combined and lysed. The samples were washed two times in ice-cold PBS and lysed with gentle pipetting for 10 minutes with additional tap-vortexing for 15 minutes in RIPA buffer containing Halt protease inhibitors (cat. no. 1862209, Thermo Fisher Scientific). Equal amounts of protein in each sample were run under reducing conditions on Bis-Tris BOLT gradient gel (4-12%) or NUPAGE Tris-acetate gradient gels (4-12%) (both from Thermo Fisher Scientific), and transferred onto […] nitrocellulose or activated PVDF membranes. The membranes were blocked with 5% skim milk and stained with primary and secondary antibodies, as indicated. The Western blots were developed with SuperSignal West Pico Chemiluminescent Substrate or West Femto Maximum Sensitivity Substrate (cat. nos. […] and […], respectively; both from Thermo Scientific), and scanned using the ChemiDoc™ MP Imaging System (Bio-Rad, Hercules, […], USA).
Quantitative real-time PCR. Total RNA from embryonic pancreases was extracted using the RNeasy UCP Micro kit (cat. no. 73934; Qiagen, Hilden, Germany) to measure expression of the Notch1 gene. One hundred to […] of the total RNA per group was reverse transcribed to cDNA using the iScript cDNA Synthesis Kit (cat. no. 1708891; Bio-Rad). Quantitative PCR assays were performed on an Applied Biosystems QuantStudio 3 real-time PCR system using cDNA and the Kapa Sybr Fast reagent (cat. no. 0795959100; Roche). Actin-R was used as a reference gene. The primer sequence for Notch1 was as follows: forward—5′[…]3′ and reverse—5′ […]3′.

Ngn3+ cells = assay: Genetic lineage tracing of Ngn3+ cells; type: in vivo, mouse
Protocol: FIGS. 18A-18C. Genetic tracing of Ngn3^+ cells in the pancreas of healthy and diabetic adult mice treated with anti-serpinB13 mAb. (A) The protocol of mice treatment with streptozotocin (STZ), tamoxifen (TAM), and anti-serpinB13 mAb (or control Ab). Eight-week old Ngn3Cre^ERTR26^YFP mice were induced into diabetes with STZ (150 mg/kg) and genetically labelled with YFP to mark Ngn3^+ cells, using TAM one day after injection of STZ, and an additional three times every other day thereafter. The antibodies were injected every day for 7 days at 100 μg/injection during the first week after STZ treatment. (B) Quantitative analysis by IF microscopy of YFP^+ cells expressing insulin at two weeks following induction of diabetes with STZ. […] (C) Representative microscopic IF images of YFP^+insulin^+ cells depicted in (B). Data are presented as the mean±SEM. Ordinary one-way ANOVA with Sidak test. Scale bars, 10 μm. NS, not significant. αB13, anti-serpinB13 mouse mAb.
Linage tracing. In the developmental studies, the Rosa26^EYFP females were initially set up for overnight breeding with NgnCre^ERT males and the following morning examined for the presence of a vaginal plug to indicate embryonic day E0.5. On embryonic day E10.5, E11.5, E12.5 and 13.5, anti-serpinB13 mAb (or control Ab) was injected i.p. at a dose of 50 μg per animal per day (total dose of 200 μg). […]

B1: B29: mouse monoclonal antibody to serpin B13, clone B29; heavy chain SEQ ID NO:14, kappa light chain SEQ ID NO:16 (antibody, V domains shown)
VH: QIQLVQSGPELKKPGETVKISCKASGYTFTTYGMSWVKQAPGKGLKWMGWINTYSGMPTYADDFKGRFAFSLETSATTAYLQINNLKNEDTATYFCARPLLGLDYWGQGTTLTVSS
VL: DIVMTQTPLSLSVTIGQPASISCKSSQSLLHSDGKTFLNWFLQRPGQSPKLLIYLVSKLESGIPDRFSGSGSGTDFTLKISRVEVEDLGVYYCLQHTHFPLTFGAGTKLEIK
Notch1 receptor; E12.5 explants treated 48 hours
  ~60 kD degradation fragments of Notch1: induction
Notch1 receptor
  levels of active Notch intracellular domain (aNICD): diminished
Notch1 receptor; listed as mAb
  levels of active Notch intracellular domain (aNICD): markedly reduced levels
Notch1 receptor; embryonic pancreatic tissue, in vivo and in vitro exposure, 24 and 48 hours
  expression of the ectodomain of the Notch1 receptor: time-dependent reduced expression
Notch1 receptor; quantitative PCR
  transcriptional level of Notch1: relatively intact
Ngn3+ cells; adult mice with STZ-induced pancreatic damage, 100 μg/injection for 7 days, listed as anti-serpinB13 mAb
  transition from Ngn3 to insulin expression (YFP+insulin+ cells): also observed; also recorded: increase
Ngn3+ cells; injection during gestation, YFP+insulin+ cells in embryos
  conversion of Ngn3+ cells to insulin-positive status: enhanced conversion
